Assay results reported in paper PMC6426973, “Oligomeric self-association contributes to E2A-PBX1-mediated oncogenesis”.

Biological target: T1, E2A-PBX1 ΔPBC-B (MBP fusion) (UniProt P15923 1-483+P40424:232-430, internal_change)
T1 sequence: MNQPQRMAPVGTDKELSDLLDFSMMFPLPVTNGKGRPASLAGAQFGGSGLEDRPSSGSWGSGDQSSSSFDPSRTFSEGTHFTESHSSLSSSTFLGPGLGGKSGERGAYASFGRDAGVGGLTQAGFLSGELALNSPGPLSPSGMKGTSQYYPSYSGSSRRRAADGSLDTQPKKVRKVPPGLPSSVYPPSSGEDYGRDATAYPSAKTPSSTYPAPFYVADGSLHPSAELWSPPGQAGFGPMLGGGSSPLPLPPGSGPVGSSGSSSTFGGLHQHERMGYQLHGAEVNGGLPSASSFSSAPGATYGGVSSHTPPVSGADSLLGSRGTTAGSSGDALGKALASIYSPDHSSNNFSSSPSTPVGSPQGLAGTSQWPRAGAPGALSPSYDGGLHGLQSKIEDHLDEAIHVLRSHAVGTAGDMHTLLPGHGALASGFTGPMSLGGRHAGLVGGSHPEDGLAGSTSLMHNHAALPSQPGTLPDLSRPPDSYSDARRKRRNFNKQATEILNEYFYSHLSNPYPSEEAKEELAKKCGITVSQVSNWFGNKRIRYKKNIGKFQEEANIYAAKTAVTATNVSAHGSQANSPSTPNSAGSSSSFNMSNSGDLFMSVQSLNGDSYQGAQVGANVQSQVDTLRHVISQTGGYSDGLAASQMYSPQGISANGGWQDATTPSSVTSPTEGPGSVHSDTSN
Assay: EMSA; LightShift Chemiluminescent EMSA kit (manufacturer's conditions), room temperature 20 min, 5% TBE gel in 0.5X TBE; salt and pH not stated
Details: protein: recombinant; tags: MBP; label: biotin (end label); blunt

B1: PBX1 consensus site oligonucleotide (dsDNA)
DNA 1: TGATTGATTGATTGAT
DNA 2: ATCAATCAATCAATCA
binding result: no binding
